In publication PMC7062162:

Biological target: HA 2NΔ peptide-DR1 complex (human | influenza A virus) (UniProt P03437)

## soluble recombinant HLA-DM (DMA*0101/DMB*0101) (complex)
  kcat, fold change against the full HA peptide complex: 5 fold
